The values that follow come from US8859492.

Where no end group is shown, it is not given here. [ ]: non-standard residue; d: D form. Cha = N[C@@H](CC1CCCCC1)C(=O)O Some results are limits rather than exact numbers.

Data set [1] deals with HCV protease (hepatitis C virus). Nature of the data set: binding/inhibition curve of FIG. 1 (left); method not described.
Data set [2] shares this target. Put plainly: cell-based or functional assay.
The target is the same in data set [3]. Nature of the data set: apparent binding affinity; method not described.
Data set [4] concerns the target T1, Co-GGH-lisinopril.
T1 chain: GGH

The target of data set [5] is T2, Ni-GGH-lisinopril (not fully specified).
T2 chain: GGH

The target in data set [6] is T3, Cu-GGH-lisinopril.
T3 chain: GGH

Data set [7] concerns the target T4, [Cu-GGH]^1-.
T4 chain: GGH

Data set [8] addresses T5, S. aureus sortase A (S. aureus), Q2FV99.
T5 chain: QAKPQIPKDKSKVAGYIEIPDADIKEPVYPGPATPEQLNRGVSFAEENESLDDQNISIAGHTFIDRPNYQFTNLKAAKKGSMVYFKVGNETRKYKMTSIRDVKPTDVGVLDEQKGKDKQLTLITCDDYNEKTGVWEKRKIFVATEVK
Put plainly: cell-based or functional assay.

In the case of GGHGD[dE]LI[Cha]C-OH (also: Cu complex) [Cu-GGHGDeLI(Cha)C-CO2^-], the Ki (usually a dissociation constant, usually derived from enzyme kinetics or from competition with a known ligand) in data set [1] was 500 nM. In data set [2], the maximal inactivation rate constant (kinact) (in general, the rate constant of inactivation at saturating inhibitor) came to 0.0014 min⁻¹ and the rate constant for inactivation kinact, in the presence of ascorbate/O2 is below 0.083 h⁻¹. In addition, in data set [3], the Ka amounted to 2e+06 M⁻¹.

B1: Recombinant human somatic ACE (sACE-1: Leu30-Leu1261, with C-terminal His tag) (protein)
chain: LDPGLQPGNFSADEAGAQLFAQSYNSSAEQVLFQSVAASWAHDTNITAENARRQEEAALLSQEFAEAWGQKAKELYEPIWQNFTDPQLRRIIGAVRTLGSANLPLAKRQQYNALLSNMSRIYSTAKVCLPNKTATCWSLDPDLTNILASSRSYAMLLFAWEGWHNAAGIPLKPLYEDFTALSNEAYKQDGFTDTGAYWRSWYNSPTFEDDLEHLYQQLEPLYLNLHAFVRRALHRRYGDRYINLRGPIPAHLLGDMWAQSWENIYDMVVPFPDKPNLDVTSTMLQQGWNATHMFRVAEEFFTSLELSPMPPEFWEGSMLEKPADGREVVCHASAWDFYNRKDFRIKQCTRVTMDQLSTVHHEMGHIQYYLQYKDLPVSLRRGANPGFHEAIGDVLALSVSTPEHLHKIGLLDRVTNDTESDINYLLKMALEKIAFLPFGYLVDQWRWGVFSGRTPPSRYNFDWWYLRTKYQGICPPVTRNETHFDAGAKFHVPNVTPYIRYFVSFVLQFQFHEALCKEAGYEGPLHQCDIYRSTKAGAKLRKVLQAGSSRPWQEVLKDMVGLDALDAQPLLKYFQPVTQWLQEQNQQNGEVLGWPEYQWHPPLPDNYPEGIDLVTDEAEASKFVEEYDRTSQVVWNEYAEANWNYNTNITTETSKILLQKNMQIANHTLKYGTQARKFDVNQLQNTTIKRIIKKVQDLERAALPAQELEEYNKILLDMETTYSVATVCHPNGSCLQLEPDLTNVMATSRKYEDLLWAWEGWRDKAGRAILQFYPKYVELINQAARLNGYVDAGDSWRSMYETPSLEQDLERLFQELQPLYLNLHAYVRRALHRHYGAQHINLEGPIPAHLLGNMWAQTWSNIYDLVVPFPSAPSMDTTEAMLKQGWTPRRMFKEADDFFTSLGLLPVPPEFWNKSMLEKPTDGREVVCHASAWDFYNGKDFRIKQCTTVNLEDLVVAHHEMGHIQYFMQYKDLPVALREGANPGFHEAIGDVLALSVSTPKHLHSLNLLSSEGGSDEHDINFLMKMALDKIAFIPFSYLVDQWRWRVFDGSITKENYNQEWWSLRLKYQGLCPPVPRTQGDFDPGAKFHIPSSVPYIRYFVSFIIQFQFHEALCQAAGHTGPLHKCDIYQSKEAGQRLATAMKLGFSRPWPEAMQLITGQPNMSASAMLSYFKPLLDWLRTENELHGEKLGWPQYNWTPNSARSEGPLPDSGRVSFLGLDLDAQQARVGQWL
For B1, the second order rate constant for cleavage of full length sACE-1 (SDS-PAGE), ascorbate + H2O2 in data set [4] was below 1170 M⁻¹ s⁻¹; in data set [6] it was 1170 M⁻¹ s⁻¹; in data set [7] it was below 50 M⁻¹ s⁻¹. For the same molecule, the second order rate constant for cleavage of full length sACE-1 (SDS-PAGE), ascorbate in data set [5] was below 1000 M⁻¹ s⁻¹; in data set [6], below 100 M⁻¹ s⁻¹. In data set [6], this molecule registered a second order rate constant for cleavage of full length sACE-1 (SDS-PAGE), H2O2 of 250 M⁻¹ s⁻¹.

In the case of GGHGLPETG (modifications not checked) [Cu-… (SEQ ID NO: 105)], the activity for catalyst concentration of 1 µM in data set [8] came to 0.012.

As for GGHGLPET (modifications not checked) [Cu-GGHGLPET (SEQ ID NO: 104)], the activity for catalyst concentration of 1 µM in data set [8] is 0.027.

With GGHGD[dE]LI[Cha]T (also: Cu complex) [Cu-GGHGDeLI(Cha)T], the kinact in data set [2] is 0.042 min⁻¹. In addition, the Ka in data set [3] came out at 33000 M⁻¹.

GGHLPETG (modifications not checked) [Cu-GGHLPETG (SEQ ID NO: 103)] yielded an activity for catalyst concentration of 1 µM in data set [8] of 0.017.

In data set [8], GGHLPET (modifications not checked) [Cu-GGHLPET (SEQ ID NO: 102)] had an activity for catalyst concentration of 1 µM of 0.009.
